# Like-named read-outs stand apart in the source and are kept apart here. Non-standard residues stand in square brackets, D forms with d. No end group written: not given here. Nle = CCCC[C@H](N)C(=O)O
# T1: human PTH/PTHrP receptor (PTH1 receptor) (human, UniProt Q03431 27-593)
# T1 sequence (looked up): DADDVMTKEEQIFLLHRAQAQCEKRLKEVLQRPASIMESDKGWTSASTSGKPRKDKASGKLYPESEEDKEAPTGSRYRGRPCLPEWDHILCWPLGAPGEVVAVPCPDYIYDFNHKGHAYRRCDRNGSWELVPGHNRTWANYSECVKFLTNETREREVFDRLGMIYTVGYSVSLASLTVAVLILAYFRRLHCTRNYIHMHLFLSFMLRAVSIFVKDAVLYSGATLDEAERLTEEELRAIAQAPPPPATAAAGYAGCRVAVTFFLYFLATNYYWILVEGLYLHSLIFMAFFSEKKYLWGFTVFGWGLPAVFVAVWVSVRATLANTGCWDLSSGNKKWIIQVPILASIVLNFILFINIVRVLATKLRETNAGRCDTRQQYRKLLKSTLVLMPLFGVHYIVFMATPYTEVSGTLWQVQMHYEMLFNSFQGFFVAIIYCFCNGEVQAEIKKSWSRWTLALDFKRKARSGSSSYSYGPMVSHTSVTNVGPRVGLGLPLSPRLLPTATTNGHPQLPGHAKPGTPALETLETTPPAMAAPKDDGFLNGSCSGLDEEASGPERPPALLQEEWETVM
# T2: canine renal PTH/PTHrP receptor (canine, UniProt Q9TU31 29-595)
# T2 construct: whole, on cells; Native receptor in renal cortical membranes of adult mongrel dogs, not intact cells; also called canine renal receptors; receptor in canine renal cortical membranes (CRCM)
# T2 sequence (looked up): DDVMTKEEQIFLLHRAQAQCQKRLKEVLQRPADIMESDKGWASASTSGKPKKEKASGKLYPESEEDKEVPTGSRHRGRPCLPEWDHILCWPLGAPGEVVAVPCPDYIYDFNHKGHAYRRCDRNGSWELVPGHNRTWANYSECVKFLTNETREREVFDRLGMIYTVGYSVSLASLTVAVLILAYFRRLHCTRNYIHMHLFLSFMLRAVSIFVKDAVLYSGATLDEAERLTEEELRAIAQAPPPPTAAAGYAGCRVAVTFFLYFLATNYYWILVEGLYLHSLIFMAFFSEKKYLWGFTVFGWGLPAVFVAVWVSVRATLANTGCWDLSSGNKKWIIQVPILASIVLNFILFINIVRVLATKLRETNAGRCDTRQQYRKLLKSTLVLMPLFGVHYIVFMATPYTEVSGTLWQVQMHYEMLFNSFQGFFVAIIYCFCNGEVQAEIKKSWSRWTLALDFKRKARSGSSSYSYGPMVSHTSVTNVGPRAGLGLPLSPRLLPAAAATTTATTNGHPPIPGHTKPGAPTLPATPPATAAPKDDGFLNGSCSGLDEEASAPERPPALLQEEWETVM
# Assays:
# [1] = molecular target: T1, human PTH/PTHrP receptor (PTH1 receptor); assay: cell-based or functional assay
# [2] = molecular target: T1, human PTH/PTHrP receptor (PTH1 receptor); assay: competition of 125I-(Tyr36)hPTHrP-(1-36)NH2 binding, SaOS-2 membranes, 30 C, 60 min
# [3] = molecular target: T1, human PTH/PTHrP receptor (PTH1 receptor); assay: competition of 125I-(Tyr36)hPTHrP-(1-36)NH2 binding, human renal cortical membranes, 30 C, 30 min
# [4] = molecular target: T2, canine renal PTH/PTHrP receptor; assay: competition of 125I-[Nle8,18,Tyr34]hPTH-(1-34)amide binding, canine renal cortical membranes, 20 C
# Method: (§1) Binding assays were conducted in siliconized 12×75 mm borosilicate glass test tubes at 20° C. in a final volume of 0.2 ml. […] Binding was initiated by adding 50 μg membrane. At the end of the incubation periods described, 50 μl triplicate aliquots were layered onto 300 μl of iced binding buffer containing 1.0% BSA in 500 μl polypropylene tubes. The tubes were centrifuged at approximately 16,000×g for three min at 4° C. in a microcentrifuge. The supernatant was aspirated and the tip of the tube containing the membrane-associated radioligand was cut off. Radioactivity in both the pellet and supernatant was measured.
# (§2) Dissociation constants (Kd) were determined by Scatchard analysis of the data obtained from competitive binding experiments using radioligand and increasing concentrations of unlabeled ligand. […] Statistical differences were assessed by paired Student's t test. […] Significance was determined using a partial F-test.
# [5] = molecular target: T2, canine renal PTH/PTHrP receptor; assay: homologous competition of 125I-[Nle8,18,Tyr34]hPTH-(1-34)amide binding, canine renal cortical membranes, 20 C
# Method: as §1, §2
# [6] = molecular target: T2, canine renal PTH/PTHrP receptor; assay: competition of 125I-[Tyr36]PTHrP-(1-36)amide binding, canine renal cortical membranes, 20 C; printed as binding dissociation constant, heterologous competitor (Ki from IC50 by paragraph 214)
# Method: as §1, §2
# [7] = molecular target: T1, human PTH/PTHrP receptor (PTH1 receptor); assay: cell-based or functional assay; remark: listed apart in the source
# [8] = molecular target: T1, human PTH/PTHrP receptor (PTH1 receptor); assay: cell-based or functional assay; remark: listed apart in the source
# [9] = molecular target: T1, human PTH/PTHrP receptor (PTH1 receptor); assay: competition binding, human RCM and SaOS-2 membranes
# [10] = molecular target: T1, human PTH/PTHrP receptor (PTH1 receptor); assay: competition of 125I-(Tyr36)hPTHrP-(1-36)NH2 binding, intact SaOS-2 cells, 15 C, 150 min
# [11] = molecular target: T1, human PTH/PTHrP receptor (PTH1 receptor); assay: competition of 125I-(Tyr36)hPTHrP-(1-36)NH2 binding, human renal cortical membranes, 30 C, 30 min
# [12] = molecular target: T1, human PTH/PTHrP receptor (PTH1 receptor); assay: as above; remark: listed apart in the source
# [13] = molecular target: T1, human PTH/PTHrP receptor (PTH1 receptor); assay: cell-based or functional assay; remark: listed apart in the source
# [14] = molecular target: T2, canine renal PTH/PTHrP receptor; assay: competition of 125I-[Tyr36]PTHrP-(1-36)amide binding, canine renal cortical membranes, 20 C
# Method: as §1, §2
# [15] = molecular target: T2, canine renal PTH/PTHrP receptor; assay: cell-based or functional assay
# [16] = molecular target: T2, canine renal PTH/PTHrP receptor; assay: competition of 125I-[Tyr36]PTHrP-(1-36)amide binding, canine renal cortical membranes, 20 C; Ki from IC50
# [17] = molecular target: T2, canine renal PTH/PTHrP receptor; assay: competition of 125I-[Nle8,18,Tyr34]hPTH-(1-34)amide binding, canine renal cortical membranes, 20 C; Ki from IC50
# [18] = molecular target: T1, human PTH/PTHrP receptor (PTH1 receptor); assay: competition of 125I-(Tyr36)hPTHrP-(1-36)NH2 binding, human RCM, SaOS-2 membranes, intact SaOS-2 cells
IC50 [2],"Adenylate cyclase (EC50), SaOS membranes [7]","Adenylate cyclase (EC50), kidney membranes (human RCM) [7]","Adenylate cyclase (EC50), SaOS cells (intact, 15 C, 60 min) [8]","Adenylate cyclase (EC50), kidney membranes (human RCM) [8]",IC50 [10],IC50 [11],IC50 [12],Molecule,further results
1.1 nM,,,,,,,,(Tyr^36) chicken (c) PTHrP-(1-36)amide (from UniProt P17251 38-73) (peptide),"Adenylate cyclase (EC50), SaOS cells (intact, 15 C, 60 min) [1]: 0.8 nM; Adenylate cyclase (EC50), SaOS membranes [1]: 0.87 nM; Adenylate cyclase (EC50), kidney membranes (human RCM) [1]: 0.49 nM; IC50 [3]: 0.47 nM"
,,,,,,,,"SVSEIQL[Nle]HNLGKHLNS[Nle]ERVEWLRKKLQDVHNY-NH2 (also called NNT-hPTH-(1-34); [Nle^8,18, Tyr^34]hPTH-(1-34)NH2) [[Nle^8,18,Tyr^34]hPTH-(1-34)amide]",fold more potent than PTHrP-(1-36) in inhibiting binding [4]: < 2 fold; Ki [5]: 7.5 nM; Ki [6]: 8.5 nM
8 nM,2.4 nM,0.59 nM,7.7 nM,0.59 nM,17.5 nM,5.1 nM,5.1 nM,"bPTH-(1-84) (ligand, bovine, UniProt P01268 32-115, looked up, range 1-84; From the National Hormone and Pituitary Program (NIDDK); also called bovine PTH-(1-84)) AVSEIQFMHNLGKHLSSMERVEWLRKKLQDVHNFVALGASIAYRDGSSQRPRKKEDNVLVESHQKSLGEADKADVDVLIKAKPQ",fold lower relative affinity than the amino-terminal analogs [9]: ~10 fold
,0.09 nM,0.05 nM,0.9 nM,0.05 nM,0.9 nM,,,"AVSEIQLMHNLGKHLASVERMQWLRKKLQDVHNF (peptide, UniProt P04089 32-65, looked up, range 1-34; Synthetic, Bachem; also called rPTH-(1-34); rat (r)PTH-(1-34)) [rat PTH-(1-34)]","adenylate cyclase potency against hPTHrP-(1-36), human RCM and SaOS-2 membranes [13]: 10 fold"
20 nM,16.3 nM,5.4 nM,3.9 nM,5.4 nM,,21.5 nM,21.5 nM,"SVSEMQLMHNLGEHRHTVERQDWLQMKLQDVHSA-NH2 (peptide, UniProt P15743 32-65, looked up, range 1-34; Solid phase synthesis; also called cPTH-(1-34)NH2) [Chicken PTH-(1-34)amide]",
,,,,,,,,"CQLLHDWGGSIQDL (also called P1-peptide; P1 peptide) [(Cys^5,Trp^11,Gly^13)PTHrP-(5-18)]",binding result [14]: no binding
2 nM,1.9 nM,1.1 nM,2.3 nM,1.1 nM,2.8 nM,3.6 nM,3.6 nM,"SVSEIQL[Nle]HNLGKHLNS[Nle]ERVEWLRKKLQDVHNY [(Nle^8,18, Tyr^34)hPTH-(1-34)]",
,0.5 nM,,1.2 nM,,,,,"AVSEIQFMHNLGKHLSSMERVEWLRKKLQDVHNF (peptide, UniProt P01268 32-65, looked up, range 1-34; Synthetic, Bachem; also called bPTH-(1-34); bovine (b)PTH-(1-34)) [bovine PTH-(1-34)]","adenylate cyclase potency against PTHrP-(1-36), standard assay (30 min, 30 C) [15]: 6 fold; adenylate cyclase stimulation against PTHrP-(1-36), binding assay conditions (20 C, 20 min, bacitracin) [15]: 15 fold; Ki [16]: 10.5 nM; Ki [17]: 6.1 nM"
,,,,,,,,"RATSEVSPNSKPSPNTKNHPVRFGSDDEGRYLTQETNK (peptide, UniProt P12272 73-110, looked up, range 73-110; Solid phase synthesis) [hPTHrP-(37-74)]",binding result [18]: no binding
,,,,,,,,"SPNTKNHPVRFGSDDEGRYLTQETNK (peptide, UniProt P12272 85-110, looked up, range 49-74; Solid phase synthesis) [PTHrP-(49-74)]",binding result [14]: no binding

# — patent US20060025342A1 (OSTEOTROPHIN, published 2006)
